Experimental data published in IntAct's records for PubMed 12473693.

B1: Vinculin (Gallus gallus (Chicken)), P12003-1 (parent)
chain: MPVFHTRTIESILEPVAQQISHLVIMHEEGEVDGKAIPDLTAPVSAVQAAVSNLVRVGKETVQTTEDQILKRDMPPAFIKVENACTKLVRAAQMLQADPYSVPARDYLIDGSRGILSGTSDLLLTFDEAEVRKIIRVCKGILEYLTVAEVVETMEDLVTYTKNLGPGMTKMAKMIDERQQELTHQEHRVMLVNSMNTVKELLPVLISAMKIFVTTKNTKSQGIEEALKNRNFTVEKMSAEINEIIRVLQLTSWDEDAWASKDTEAMKRALALIDSKMNQAKGWLRDPNAPPGDAGEQAIRQILDEAGKAGELCAGKERREILGTCKTLGQMTDQLADLRARGQGATPMAMQKAQQVSQGLDLLTAKVENAARKLEAMTNSKQAIAKKIDAAQNWLADPNGGSEGEEHIRGIMSEARKVAELCEEPKERDDILRSLGEISALTAKLSDLRRHGKGDSPEARALAKQIATSLQNLQSKTNRAVANTRPVKAAVHLEGKIEQAQRWIDNPTVDDRGVGQAAIRGLVAEGRRLANVMMGPYRQDLLAKCDRVDQLAAQLADLAARGEGESPQARAIAAQLQDSLKDLKARMQEAMTQEVSDVFSDTTTPIKLLAVAATAPSDTPNREEVFEERAANFENHAARLGATAEKAAAVGTANKTTVEGIQATVKSARELTPQVVSAARILLRNPGNQAAYEHFETMKNQWIDNVEKMTGLVDEAIDTKSLLDASEEAIKKDLDKCKVAMANMQPQMLVAGATSIARRANRILLVAKREVENSEDPKFREAVKAASDELSKTISPMVMDAKAVAGNISDPGLQKSFLDSGYRILGAVAKVREAFQPQEPDFPPPPPDLEHLHLTDELAPPKPPLPEGEVPPPRPPPPEEKDEEFPEQKAGEAINQPMMMAARQLHDEARKWSSKGNDIIAAAKRMALLMAEMSRLVRGGSGNKRALIQCAKDIAKASDEVTRLAKEVAKQCTDKRIRTNLLQVCERIPTISTQLKILSTVKATMLGRTNISDEESEQATEMLVHNAQNLMQSVKETVREAEAASIKIRTDAGFTLRWVRKTPWYQ

Variants of: B1
Details: with arpc2_mouse Arpc2, Q9CVB6

effect of a mutation on the interaction	Variant
disrupting interaction	P878A
